# Assay results published in paper PMC4215116.
# B1: extracellular matrix protein 1 (ECM1): N444Q (protein)
# parent chain: MGTTARAALVLTYLAVASAASEGGFTATGQRQLRPEHFQEVGYAAPPSPPLSRSLPMDHPDSSQHGPPFEGQSQVQPPPSQEATPLQQEKLLPAQLPAEKEVGPPLPQEAVPLQKELPSLQHPNEQKEGTPAPFGDQSHPEPESWNAAQHCQQDRSQGGWGHRLDGFPPGRPSPDNLNQICLPNRQHVVYGPWNLPQSSYSHLTRQGETLNFLEIGYSRCCHCRSHTNRLECAKLVWEEAMSRFCEAEFSVKTRPHWCCTRQGEARFSCFQEEAPQPHYQLRACPSHQPDISSGLELPFPPGVPTLDNIKNICHLRRFRSVPRNLPATDPLQRELLALIQLEREFQRCCRQGNNHTCTWKAWEDTLDKYCDREYAVKTHHHLCCRHPPSPTRDECFARRAPYPNYDRDILTIDIGRVTPNLMGHLCGNQRVLTKHKHIPGLIHNMTARCCDLPFPEQACCAEEEKLTFINDLCGPRRNIWRDPALCCYLSPGDEQVNCFNINYLRNVALVSGDTENAKGQGEQGSTGGTNISSTSEPKEE
# Experiment: Ni-NTA pull-down of conditioned medium, anti-myc blot
# Conditions: glycan lost; control: wild-type ECM1-MH
protein,measurement,value
B1,expression_or_secretion,no change
